Test results published in US12391751B2, “Antibody against advanced glycation end products and use thereof” (Bloom Technology Corporation, priority 2018, dated 2025).
Values belong to the molecule of their own block, whether it stands above or below them.

How the values were obtained:
GAL13-BSA = molecular target: T1, GAL13-BSA (Bos taurus, UniProt P02769); assay: Reactivity of novel monoclonal antibody by direct ELISA (Example 5); format: binding; details: immobilized GAL13-BSA 1 μg/mL, POD-labeled antibody dilution series from 4 μg/mL
T1 construct: purchased Sigma-Aldrich Co. LLC
T1 sequence (P02769 25-607): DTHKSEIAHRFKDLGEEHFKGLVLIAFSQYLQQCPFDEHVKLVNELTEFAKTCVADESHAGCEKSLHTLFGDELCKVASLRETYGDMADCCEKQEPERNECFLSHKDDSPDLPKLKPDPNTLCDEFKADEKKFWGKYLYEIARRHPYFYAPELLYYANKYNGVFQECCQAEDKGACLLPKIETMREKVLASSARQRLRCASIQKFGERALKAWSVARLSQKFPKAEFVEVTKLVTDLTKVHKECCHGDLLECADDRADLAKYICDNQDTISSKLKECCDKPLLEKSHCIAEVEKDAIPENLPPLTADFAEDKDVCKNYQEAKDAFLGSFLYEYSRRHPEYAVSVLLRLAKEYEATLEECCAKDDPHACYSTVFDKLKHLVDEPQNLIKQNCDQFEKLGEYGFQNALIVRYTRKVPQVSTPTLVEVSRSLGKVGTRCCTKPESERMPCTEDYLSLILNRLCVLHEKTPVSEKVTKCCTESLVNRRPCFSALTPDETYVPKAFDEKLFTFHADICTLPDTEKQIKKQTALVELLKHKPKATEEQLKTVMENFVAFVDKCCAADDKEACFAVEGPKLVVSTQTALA
Experimental: BSA modified with the novel structure derived from Glycer-AGEs (GAL13-BSA) was added at 100 μL/well with a concentration of 1 μg/mL and immobilized overnight at 4° C. The plate was washed three times with PBS containing 0.05% (v/v) Tween 20 (PBS-T) and then blocked with PBS-T containing 0.5% (w/v) gelatin for 1 hour. The POD-labeled novel monoclonal antibody SJ-5 prepared in Example 4 and the anti-glyceraldehyde-derived AGEs polyclonal antibody as a control were serially diluted into 4-fold dilutions from 4 μg/mL to 0.06254 μg/mL to prepare dilution series, which were then added at 100 μL/well to the antigen-immobilized plate and left standing for 1 hour. After washing, an o-phenylenediamine solution (100 μL) prepared into 0.5 mg/mL with a 0.1 M citrate-phosphate buffer solution (pH 5.0) containing 0.02% (w/v) hydrogen peroxide was added to each well and left standing at 25° C. for 10 minutes. Then, color reaction was terminated by the addition of a 1 M sulfuric acid solution (50 μL) to each well. Then, absorbance at 490 nm was measured with a microplate reader.

Fru-AGEs-BSA = Fru-AGEs-BSA (Bos taurus, UniProt P02769); assay: Specificity of SJ-5 by competitive ELISA (Example 7); format: binding; details: GAL13-BSA or Glycer-AGEs-BSA immobilized, POD-labeled SJ-5 0.4 μg/mL
Chain of Fru-AGEs-BSA (P02769 25-607): as above

[1] = Reactivity of SJ-5 with GLAP by competitive ELISA (Example 13); format: binding; details: immobilized Glycer-AGEs-BSA
Experimental: A solution of BSA containing AGEs derived from glyceraldehyde (stock solution: 10 mg/mL PBS solution) prepared into 1 μg/mL in a coating solution was added at 100 μL/well to a 96-well microtiter plate (COSTAR) and incubated overnight at 4° C.
Each well after the immobilization treatment was washed three times with a washing solution (300 μL), and a blocking solution (200 μL) was added thereto and left at room temperature for 1 hour.
GAL13 (prepared in Example 2), GLAP (prepared in Example 12), and Z-Lys-OH (Tokyo Chemical Industry Co., Ltd.) were each dissolved in a phosphate buffer solution (0.2 M, pH 7.4) to prepare a 20 mg/mL solution. Sample solutions of 2-fold dilution series from 0.0063 to 2 mg/mL (6 points) were further prepared by dilution with a diluting solution. A POD-labeled novel monoclonal antibody (SJ-5) solution was diluted 16,000-fold with a diluting solution containing BSA (1 mg/mL, FUJIFILM Wako Pure Chemical Corp.) to prepare a POD-labeled SJ-5 antibody dilution solution. […]
Absorbance was measured at a dominant wavelength of 450 nm and a sub-wavelength of 650 nm with a microplate reader (Cytation 5, BioTek Instrument Inc.), and the absorbance at the sub-wavelength was subtracted from the absorbance at the dominant wavelength.

[2] = system: retinal pigment epithelial cells (ARPE-19 cells); assay: Tight junction breakdown suppression test, impedance by xCELLigence (Example 34); format: cell-based
Experimental: FBS (FUJIFILM Wako Pure Chemical Corp.) was added at 10% to D-MEM (FUJIFILM Wako Pure Chemical Corp.), and penicillin-streptomycin (Nacalai Tesque, Inc.) was added at 1% thereto to prepare DMEM medium. ARPE-19 cells (ATCC) were cultured in the DMEM medium using a 10 cm dish (Corning Inc.).
xCELLigence RTCA DP system (ACEA Biosciences, Inc.) was installed in a CO2 incubator and used in a state loaded overnight or longer after the installation for stabilization. Immediately before cell preparation, DMEM medium was added at 50 μL/well to E-plate (ACEA Biosciences, Inc.), and a background was measured.
The medium was removed from the ARPE-19 cells cultured in (1) described above, which were then washed by repeating the addition and removal of 10 mL of PBS(−) (FUJIFILM Wako Pure Chemical Corp.) twice. 1 mL of trypsin-EDTA (FUJIFILM Wako Pure Chemical Corp.) was added thereto, and the cells were dispersed by incubation in a CO2 incubator (Taitec Corp.) at 37° C. for 3 minutes. Then, the activity of trypsin was neutralized by the addition of 10 mL of DMEM medium. The neutralized cell dispersion was transferred to a 50 mL tube (Falcon) and centrifuged at 1500 rpm for 5 minutes using a centrifuge (Kubota Corp.). Then, the supernatant was discarded, and the precipitates were resuspended in 1 mL of DMEM medium. A 10 μL aliquot of the resuspended cell dispersion was mixed with 10 μL of Trypan Blue (NanoEnTek Inc.), and 10 μL thereof was added to a counting chamber (NanoEnTek Inc.). Then, the number of live cells was counted in Auto Cell Counter EVE (NanoEnTek Inc.). The cell suspension was diluted into 4.0×10^5 cells/mL with DMEM medium and inoculated at 80 μL/well to E-plate (ACEA Biosciences, Inc.).
The impedance of the plate was measured every 15 minutes using the xCELLigence RTCA DP system to confirm the adhesion of the cells to the plate. […] After the addition, the impedance was also measured every 15 minutes.
The impedance was measured 10 to 12 hours after the addition of A-peak-BSA and normalized to that of the A-peak-BSA addition group defined as 0.

- reactivity with GAL13-BSA (absorbance at 490 nm) (GAL13-BSA): react favorably
- specificity: reactivity with Fru-AGEs-BSA (Fru-AGEs-BSA): negative
B1: SJ-5: mouse monoclonal antibody raised against GAL13-MSA; heavy-chain variable region SEQ ID NO 4, light-chain variable region SEQ ID NO 8 (antibody, listed as Mus musculus, V domains shown)
VH: EVMLVESGGRLVKPGGSLKLSCAASGFTFSSYGMSWVRQTPEKRLEWVATISGGGSYTYYPDSVKGRFTISRDNVKNNLYLQMSSLRSEDTALYYCARRGAYGDYGWFAYWGQGTLVTVSA
VL: DIVLTQSPATLSVTPGDSVSLSCRASQSINNNLHWYQQKSHESPRLLIKCASQSISGIPSRFSGSGSGTDFTLSINSVETEDFGMYFCQQSNSWPLTFGAGTKLELK
- recognition of GLAP [1]: does not recognize
- suppression of A-peak-BSA-induced reduction in impedance ([2]; SJ-5 final concentration of 1 mg/mL): suppression of the reduction was found

B2: PB-1: mouse monoclonal antibody raised against A-peak-BSA; heavy-chain variable region SEQ ID NO 18, light-chain variable region SEQ ID NO 22 (antibody, listed as Mus musculus, V domains shown)
VH: EVRLQQSGPELVKPGTSVKISCKASGYSFTGYYMHWVKQSPVKSLEWIGRIIPYNGATSYNQNFKDKASLTVDKSSRTAYMDLHSLTSEDSAVYYCARSRYYGRAPYYFDYWGQGTTLTVSS
VL: DVVVTQTPLSLPVSLGDQASISCRSSQSIVHSNGNTYLEWYLQKPGQSPKLLIYKVSNRFSGVPDRISGSGSGTDFTLKISRVEAGDLGVYSCFQGSHVPFTFGSGTKLEIK
- suppression of A-peak-BSA-induced reduction in impedance ([2]; 9 μL of PB-1 at 10, 3, 1 or 0.3 mg/mL): significantly suppressed
- suppression of reduction in impedance compared with SJ-5 antibody ([2]; PB-1 even in a lower concentration region): stronger suppression than that by the SJ-5 antibody
